# Measurements from patent US20030166196A1 (published 2003).
# T1: human CD5 cell differentiation marker (human, UniProt P06127 25-495)
# T1 sequence: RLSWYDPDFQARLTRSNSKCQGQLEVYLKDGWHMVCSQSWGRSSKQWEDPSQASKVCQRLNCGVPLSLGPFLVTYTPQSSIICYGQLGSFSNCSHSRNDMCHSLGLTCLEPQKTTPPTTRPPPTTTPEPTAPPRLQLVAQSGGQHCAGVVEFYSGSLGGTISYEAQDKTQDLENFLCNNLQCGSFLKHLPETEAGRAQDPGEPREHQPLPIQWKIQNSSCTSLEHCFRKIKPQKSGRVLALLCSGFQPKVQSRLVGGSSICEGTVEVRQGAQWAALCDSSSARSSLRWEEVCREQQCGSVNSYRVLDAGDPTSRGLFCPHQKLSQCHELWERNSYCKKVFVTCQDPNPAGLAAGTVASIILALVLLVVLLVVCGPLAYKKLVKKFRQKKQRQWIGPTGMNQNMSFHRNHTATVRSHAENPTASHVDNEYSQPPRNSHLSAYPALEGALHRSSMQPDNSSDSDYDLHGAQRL
# Legend:
# [1] = target: T1, human CD5 cell differentiation marker; test: cell-based or functional assay
# [2] = target: T1, human CD5 cell differentiation marker; test: competition with 125I-cH65 IgG on Molt-4M cells
Binder,"IC50 (pMT), whole cell cytotoxicity, CEM Cells [1] [pMT]","IC50 (pMT), whole cell cytotoxicity, HSB2 Cells [1] [pMT]",binding result [2]
he3Fab-rGelA50(C44) (other) light: DIQMTQSPSSLSASVGDRVTITCRASQDINSYLSWFQQKPGKAPKTLIYRANRLESGVPSRFSGSGSGTDYTLTISSLQYEDFGIYYCQQYDESPWTFGGGTKLEIK heavy: EIQLVQSGGGLVKPGGSVRISCAASGYTFTNYGMNWVRQAPGKGLEWMGWINTHTGEPTYADSFKGRFTFSLDDSKNTAYLQINSLRAEDTAVYFCTRRGYDWYFDVWGQGTTVTVSS GLDTVSFSTKGATYITYVNFLNELRVKLKPEGNSHGIPLLRKKCDDPGKAFVLVALSNDNGQLAEIAIDVTSVYVVGYQVRNRSYFFKDAPDAAYEGLFKNTIKTRLHFGGSYPSLEGEKAYRETTDLGIEPLRIGIKKLDENAIDNYKPTEIASSLLVVIQMVSEAARFTFIENQIRNNFQQRIRPANNTISLENKWGKLSFQIRTSGANGMFSEAVELERANGKKYYVTAVDQVKPKIALLKFVDKDPK,173,165,–
"he3 IgG (human-engineered H65 antibody, moderate-risk changes, ATCC HB 11206) (antibody, V domains shown, also called he3 antibody; humanized antibody) VH: EIQLVQSGGGLVKPGGSVRISCAASGYTFTNYGMNWVRQAPGKGLEWMGWINTHTGEPTYADSFKGRFTFSLDDSKNTAYLQINSLRAEDTAVYFCTRRGYDWYFDVWGQGTTVTVSS VL: DIQMTQSPSSLSASVGDRVTITCRASQDINSYLSWFQQKPGKAPKTLIYRANRLESGVPSRFSGSGSGTDYTLTISSLQYEDFGIYYCQQYDESPWTFGGGTKLEIK",–,–,binds
"chimeric H65 IgG (antibody, V domains shown, also called 125I-cH65 IgG) VL: […] VH: QIQLVQSGPELKKPGETVKISCKASGYTFTNYGMNWVKQAPGKGLRWMGWINTHTGEPTYADDFKGRFAFSLETSASTAYLQINNLKNEDTATYFCTRRGYDWYFDVWGAGTTVTVSS",–,–,binds
